The record followed here is patent US20210275683A1 (SILVERBACK THERAPEUTICS, published 2021).

For assay [1], the target named is T1, Nectin-4 on MDA-MB-175-VII tumor cells (UniProt Q96NY8 32-510, limits assumed).
T1 sequence (looked up): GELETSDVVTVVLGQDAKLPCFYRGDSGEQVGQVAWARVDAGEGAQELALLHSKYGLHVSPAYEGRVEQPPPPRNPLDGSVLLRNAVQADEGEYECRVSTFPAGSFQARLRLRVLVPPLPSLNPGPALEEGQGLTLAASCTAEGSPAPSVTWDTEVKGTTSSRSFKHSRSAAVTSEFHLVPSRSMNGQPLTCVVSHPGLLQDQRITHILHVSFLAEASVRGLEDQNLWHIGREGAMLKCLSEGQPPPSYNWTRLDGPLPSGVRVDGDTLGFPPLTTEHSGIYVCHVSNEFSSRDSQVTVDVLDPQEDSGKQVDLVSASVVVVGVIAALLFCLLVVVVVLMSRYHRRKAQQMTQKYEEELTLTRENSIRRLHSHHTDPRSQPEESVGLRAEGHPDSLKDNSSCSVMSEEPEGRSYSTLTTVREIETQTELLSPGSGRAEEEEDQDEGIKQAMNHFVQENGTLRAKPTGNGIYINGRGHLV
The experiment in a line: cell-based or functional assay.

Assay [2] deals with T2, human Nectin-4 on transfected HEK-293 cells (human, UniProt Q96NY8 32-510).
T2 construct: whole, on cells; also called HEK-293 cells transfected with human Nectin-4; Nectin-4-expressing HEK-293 cells
T2 sequence (looked up): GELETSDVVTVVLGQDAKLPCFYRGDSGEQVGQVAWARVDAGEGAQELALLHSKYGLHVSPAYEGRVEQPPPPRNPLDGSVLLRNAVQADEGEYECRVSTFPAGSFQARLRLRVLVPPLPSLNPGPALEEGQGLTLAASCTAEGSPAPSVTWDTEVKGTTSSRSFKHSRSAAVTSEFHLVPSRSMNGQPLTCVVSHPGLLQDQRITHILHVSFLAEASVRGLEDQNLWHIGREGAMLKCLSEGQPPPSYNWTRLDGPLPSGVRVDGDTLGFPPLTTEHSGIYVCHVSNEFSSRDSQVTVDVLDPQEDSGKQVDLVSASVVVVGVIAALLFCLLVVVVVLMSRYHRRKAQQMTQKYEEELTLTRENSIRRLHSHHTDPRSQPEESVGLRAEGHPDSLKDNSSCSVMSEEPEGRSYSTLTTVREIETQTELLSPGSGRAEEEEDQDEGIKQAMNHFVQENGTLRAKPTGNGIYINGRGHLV
The assay is described as follows: flow cytometry on HEK-293 cells transfected with human Nectin-4, anti-huIgG1-PE secondary, MFI (Geo Mean). The procedure: (§1) After incubations, cells were washed with FW and then analyzed on a flow cytometer.
For orientation: A flow cytometer gives signals particle by particle.

For assay [3], the target named is T3, cynomolgus Nectin-4 on transfected HEK-293 cells (cynomolgus, UniProt A0A2K5WES1 32-510).
T3 construct: whole, on cells; also called HEK-293 cells transfected with cynomolgus Nectin-4
T3 sequence: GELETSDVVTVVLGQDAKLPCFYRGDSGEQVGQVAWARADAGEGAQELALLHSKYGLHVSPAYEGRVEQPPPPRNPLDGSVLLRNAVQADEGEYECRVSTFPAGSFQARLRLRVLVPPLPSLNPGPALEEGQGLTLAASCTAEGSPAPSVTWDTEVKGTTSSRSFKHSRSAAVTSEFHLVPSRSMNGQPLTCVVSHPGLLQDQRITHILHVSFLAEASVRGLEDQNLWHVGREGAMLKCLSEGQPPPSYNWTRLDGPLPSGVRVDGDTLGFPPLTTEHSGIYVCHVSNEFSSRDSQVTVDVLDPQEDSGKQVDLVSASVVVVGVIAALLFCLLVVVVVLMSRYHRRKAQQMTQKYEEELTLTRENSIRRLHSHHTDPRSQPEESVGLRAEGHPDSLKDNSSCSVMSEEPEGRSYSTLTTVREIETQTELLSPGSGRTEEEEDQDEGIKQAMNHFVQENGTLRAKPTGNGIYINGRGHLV
The experiment in a line: flow cytometry on HEK-293 cells transfected with cynomolgus Nectin-4, anti-huIgG1-PE secondary, MFI (Geo Mean). On the procedure:
as §1

Assay [4] has as its target T1, Nectin-4 on MDA-MB-175-VII tumor cells. The experiment in a line: flow cytometry on MDA-MB-175-VII cells (Nectin-4 expressing tumor cell line), anti-huIgG1-PE secondary, MFI (Geo Mean). The procedure:
as §1

In assay [5] the target is T4, huNectin-1 ECD-hFc (human, UniProt Q15223 31-355).
T4 construct: extracellular domain; Bought (Sino Biological); also called hFc-tagged human Nectin-1 ECD dimeric protein; not shown: human Fc tag
T4 sequence (looked up): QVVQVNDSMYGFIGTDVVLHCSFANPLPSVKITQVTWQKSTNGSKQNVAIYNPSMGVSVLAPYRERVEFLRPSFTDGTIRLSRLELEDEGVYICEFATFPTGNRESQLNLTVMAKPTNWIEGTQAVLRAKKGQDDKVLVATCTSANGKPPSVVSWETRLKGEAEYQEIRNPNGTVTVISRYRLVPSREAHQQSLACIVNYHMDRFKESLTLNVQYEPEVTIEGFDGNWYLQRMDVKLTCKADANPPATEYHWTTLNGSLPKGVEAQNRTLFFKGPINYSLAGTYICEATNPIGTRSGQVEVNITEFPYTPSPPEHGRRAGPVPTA
The assay is described as follows: BLI (Octet Red 96), biotinylated hzD6.2C on streptavidin biosensors, dimeric ECD-hFc in solution. On the procedure: (§2) Analysis of hzD6.2C monoclonal antibody (mAb) for binding to human Nectin-1, Nectin-2, Nectin-3, and Nectin-4 extracellular domains (ECDs) was performed using Octet® Red 96 instrument (ForteBio, Inc.). Biotinylated hzD6.2C mAb was immobilized on streptavidin biosensors and incubated with hFc-tagged human Nectin-1, -2, -3, and -4 ECD dimeric proteins (Sino Biological) at varying concentrations ranging from 1.2 nM to 300 nM in PBS/1% BSA/0.2% Tween 20. The experimental measurements were performed as follows: (1) baseline acquisition (30 s); (2) biotinylated hzD6.2C mAb loading onto streptavidin biosensor (120 s); (3) second baseline acquisition (30 s); (4) association of interacting dimeric Nectin 1/2/3/4 ECD proteins for kₒₙ measurement (90 s); and (5) dissociation of interacting dimeric ECDs for koff measurement (180 s). The interacting dimeric Nectin ECD proteins were used at 5-6 concentrations of 3-fold concentration series. Data were analyzed using Octet® Data Analysis Sofware 9.0 (ForteBio, Inc.) and fitted to the 1:1 binding model. Equilibrium dissociation constants (KD) were calculated by the ratio of […].
For orientation: In BLI a coated tip is dipped into the sample, and binding shifts an interference pattern.

In assay [6] the target is T5, huNectin-2 ECD-hFc (human, UniProt Q92692 32-360).
T5 construct: extracellular domain; Bought (Sino Biological); also called hFc-tagged human Nectin-2 ECD dimeric protein; not shown: human Fc tag
T5 sequence (looked up): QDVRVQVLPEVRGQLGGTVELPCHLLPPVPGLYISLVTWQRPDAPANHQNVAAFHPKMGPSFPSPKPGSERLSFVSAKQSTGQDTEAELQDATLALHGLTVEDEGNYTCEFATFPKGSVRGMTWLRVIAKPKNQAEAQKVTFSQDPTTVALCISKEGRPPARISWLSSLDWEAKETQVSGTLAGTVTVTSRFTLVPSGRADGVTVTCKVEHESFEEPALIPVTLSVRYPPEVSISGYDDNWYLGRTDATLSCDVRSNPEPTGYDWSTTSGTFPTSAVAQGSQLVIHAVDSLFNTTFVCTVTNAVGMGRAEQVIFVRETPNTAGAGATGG
Described as above. The procedure:
as §2

For assay [7], the target named is T6, huNectin-3 ECD-hFc (human, UniProt Q9NQS3 58-404).
T6 construct: extracellular domain; Bought (Sino Biological); also called hFc-tagged human Nectin-3 ECD dimeric protein; not shown: human Fc tag
The assay is described as above. On the procedure: as §2

The target of assay [8] is T7, huNectin-4 ECD-hFc (human, UniProt Q96NY8 32-349).
T7 construct: extracellular domain; Bought (Sino Biological); also called hFc-tagged human Nectin-4 ECD dimeric protein; human Nectin-4 ECD; not shown: human Fc tag
T7 sequence (looked up): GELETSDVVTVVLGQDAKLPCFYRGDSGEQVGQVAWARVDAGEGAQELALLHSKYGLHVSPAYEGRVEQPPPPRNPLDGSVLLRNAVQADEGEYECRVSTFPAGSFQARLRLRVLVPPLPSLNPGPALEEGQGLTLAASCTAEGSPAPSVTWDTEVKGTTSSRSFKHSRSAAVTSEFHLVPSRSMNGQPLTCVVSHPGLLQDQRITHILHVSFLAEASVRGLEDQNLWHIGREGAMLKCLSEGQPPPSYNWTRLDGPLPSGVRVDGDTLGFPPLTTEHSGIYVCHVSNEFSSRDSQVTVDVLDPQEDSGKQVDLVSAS
The experiment in a line: BLI (Octet Red 96), biotinylated hzD6.2C on streptavidin biosensors, dimeric ECD-hFc in solution, 1:1 model, KD with avidity. The procedure: as §2

T6 sequence (Q9NQS3 58-404): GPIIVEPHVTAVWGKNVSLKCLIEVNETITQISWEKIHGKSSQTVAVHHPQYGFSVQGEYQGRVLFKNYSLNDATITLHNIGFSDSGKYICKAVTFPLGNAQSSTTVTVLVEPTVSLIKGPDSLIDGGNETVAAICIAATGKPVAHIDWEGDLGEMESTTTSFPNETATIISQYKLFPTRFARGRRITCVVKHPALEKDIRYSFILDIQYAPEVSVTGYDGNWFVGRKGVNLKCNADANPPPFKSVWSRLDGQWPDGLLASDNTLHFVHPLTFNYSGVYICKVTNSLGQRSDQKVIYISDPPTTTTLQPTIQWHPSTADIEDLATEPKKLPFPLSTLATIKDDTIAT

B1: hzD6.2C-Compound 2.14 (anti-Nectin-4-TLR8 agonist immunoconjugate) (antibody, V domains shown)
VH: EVQLVESGGGLVQPGGSLRLSCAASGFTFSNYDMSWVRQAPGKGLEWVATISSGGSYTYYVDSVKGRFTISRDNAKNSLYLQMNSLRAEDTAVYYCARQELGSYYAMDYWGQGTTVTVSS
VL: DIVMTQTPLSLPVTPGEPASISCRSSQSIVHSNANTYLEWYLQKPGQSPQLLIYKVSNRFSGVPDRFSGSGSGTDFTLKISRVEAEDVGVYYCFQGSHVPYTFGGGTKVEIKR
notes: hzD6.2C conjugated to linker-TLR8 agonist Compound 2.14
In general, EC50 refers to the concentration needed to bring the measured effect to its halfway point. Higher therefore signals a less potent agent. Take B1: the “TNF-α production from human PBMCs co-cultured with MDA-MB-175-VII cells, EC50” value (shortened to “TNF-α production”) in assay [1] came to 0.37 nM. For the same molecule, the EC50 in assay [2] came to 0.034 µg/mL; in assay [3], 0.016 µg/mL; in assay [4], 0.0095 µg/mL.

B2: humanized D6C mAb with hzD6.2C VL (G34A), human IgG1 / human kappa (antibody, V domains shown)
VH: EVQLVESGGGLVQPGGSLRLSCAASGFTFSNYDMSWVRQAPGKGLEWVATISSGGSYTYYVDSVKGRFTISRDNAKNSLYLQMNSLRAEDTAVYYCARQELGSYYAMDYWGQGTTVTVSS
VL: DIVMTQTPLSLPVTPGEPASISCRSSQSIVHSNANTYLEWYLQKPGQSPQLLIYKVSNRFSGVPDRFSGSGSGTDFTLKISRVEAEDVGVYYCFQGSHVPYTFGGGTKVEIKR
notes: also called hzD6.2C mAb
Consider B2, for which the binding result in assay [5], in assay [6] and in assay [7] was “no binding (tested: 1.2 nM to 300 nM)” each time. Further, the EC50 in assay [2] is 0.014 µg/mL; in assay [3] it was 0.017 µg/mL; in assay [4] it was 0.012 µg/mL. Besides, the Kd in assay [8] is below 0.001 nM.

B3: humanized D6C mAb with hzD6.1C VL (I2V), human IgG1 / human kappa (antibody, V domains shown)
VH: EVQLVESGGGLVQPGGSLRLSCAASGFTFSNYDMSWVRQAPGKGLEWVATISSGGSYTYYVDSVKGRFTISRDNAKNSLYLQMNSLRAEDTAVYYCARQELGSYYAMDYWGQGTTVTVSS
VL: DVVMTQTPLSLPVTPGEPASISCRSSQSIVHSNGNTYLEWYLQKPGQSPQLLIYKVSNRFSGVPDRFSGSGSGTDFTLKISRVEAEDVGVYYCFQGSHVPYTFGGGTKVEIKR
notes: also called hzD6.IC
As to B3, the concentration for a half-maximal effect (EC50) in assay [2] was determined as 0.02 µg/mL; in assay [3] it was 0.016 µg/mL; in assay [4], 0.0097 µg/mL.

B4: hzD6.1C-Compound 2.14 (anti-Nectin-4-TLR8 agonist immunoconjugate) (antibody, V domains shown)
VH: EVQLVESGGGLVQPGGSLRLSCAASGFTFSNYDMSWVRQAPGKGLEWVATISSGGSYTYYVDSVKGRFTISRDNAKNSLYLQMNSLRAEDTAVYYCARQELGSYYAMDYWGQGTTVTVSS
VL: DVVMTQTPLSLPVTPGEPASISCRSSQSIVHSNGNTYLEWYLQKPGQSPQLLIYKVSNRFSGVPDRFSGSGSGTDFTLKISRVEAEDVGVYYCFQGSHVPYTFGGGTKVEIKR
notes: hzD6.1C conjugated to linker-TLR8 agonist Compound 2.14
With B4, the “TNF-α production” value in assay [1] turned out to be 0.33 nM. Also, the EC50 in assay [2] stood at 0.069 µg/mL; in assay [3], 0.023 µg/mL; in assay [4], 0.0086 µg/mL.

B5: D6C IgG1-Compound 2.14 (parental antibody TLR8 agonist conjugate) (antibody, V domains shown)
VH: EVMLVESGGALVKPGGSLKLSCVASGFTFSNYDMSWVRQTPEKRLEWVATISSGGSYTYYVDSVKGRFTISRDNARNTLHLQMSSLRSKDTAMYYCARQELGSYYAMDYWGQGTSVTVSS
VL: DVVMTQTPLSLPVSLGDQASISCRSSQSIVHSNGNTYLEWYLQKPGQSPKLLIYKVSNRFSGVPDRFSGSGSGTDFTLKISRVEAEDLGVYYCFQGSHVPYTFGGGTKLEIK
notes: IgG1
Consider B5, for which, in assay [1], the “TNF-α production” value was 0.83 nM. Also, the concentration for a half-maximal effect (EC50) in assay [2] was 0.049 µg/mL; in assay [3], 0.019 µg/mL; in assay [4] it was 0.011 µg/mL.

B6: D6C parental chimeric anti-Nectin-4 antibody (D6C IgG1) (antibody, V domains shown)
VH: EVMLVESGGALVKPGGSLKLSCVASGFTFSNYDMSWVRQTPEKRLEWVATISSGGSYTYYVDSVKGRFTISRDNARNTLHLQMSSLRSKDTAMYYCARQELGSYYAMDYWGQGTSVTVSS
VL: DVVMTQTPLSLPVSLGDQASISCRSSQSIVHSNGNTYLEWYLQKPGQSPKLLIYKVSNRFSGVPDRFSGSGSGTDFTLKISRVEAEDLGVYYCFQGSHVPYTFGGGTKLEIK
notes: Called the parental chimeric antibody; also called chimeric D6C
Take B6: the concentration for a half-maximal effect (EC50) in assay [2] was determined as 0.03 µg/mL; in assay [3], 0.018 µg/mL; in assay [4], 0.01 µg/mL.
